“And” between values parts separate entries of the source, which are not always exact repeats. Equal entries are not always repeated.
B1: Myo28 scFv (scFv)
scFv: QVTLKESGGGLVQPGGSLRLSCAASGFTFSRYVINWVRQAPGKGLEWVSAISVTGGSTAYADSVRGRFTISRDNSKNTLYLQMNSLRAEDTAVYYCTKGQWERGSYYFDYWGRGTLVTVSSGGGGSGGGGSGGGGSAQSVLTQPPSVSGAPGQRVTISCTGSSSNIGDGYDVHWYQQLPGTAPKLLIYGNSHRPSGVPDRFSGSKSDTSASLAITGLQVEDEADYFCHSYDGSVSGWIFGGGTKLTVLGAAAHHHHHH
notes: tags from the vector are not described; also called scFv of Myo28
B2: Myo29 scFv (scFv)
scFv: QVQLVQSGAEVKKPGASVKVSCKASGYTFTSYYMHWVRQAPGQGLEWMGIINPSGGSTSYAQKFQGRVTMTRDTSTSTVYMELSSLRSEDTAVYYCARDENWGFDPWGQGTLVTVSSGGGGSGGGGSGGGGSALSYELTQPPSVSVSPGQTATITCSGHALGDKFVSWYQQGSGQSPVLVIYDDTQRPSGIPGRFSGSNSGNTATLTISGTQAMDEADYFCQAWDSSFVFGGGTKVTVLGAAAHHHHHH
notes: tags from the vector are not described; also called scFv of Myo29
B3: mature human BMP-11 (ligand, UniProt O95390 299-407, looked up)
chain: NLGLDCDEHSSESRCCRYPLTVDFEAFGWDWIIAPKRYKANYCSGQCEYMFMQKYPHTHLVQQANPRGSAGPCCTPTKMSPINMLYFNDKQQIIYGKIPGMVVDRCGCS
notes: mature; also called GDF-11; biotinylated BMP-11
B4: Myo28 human IgG1 antibody (antibody, V domains shown)
VH: QVTLKESGGGLVQPGGSLRLSCAASGFTFSRYVINWVRQAPGKGLEWVSAISVTGGSTAYADSVRGRFTISRDNSKNTLYLQMNSLRAEDTAVYYCTKGQWERGSYYFDYWGRGTLVTVSS
VL: QSVLTQPPSVSGAPGQRVTISCTGSSSNIGDGYDVHWYQQLPGTAPKLLIYGNSHRPSGVPDRFSGSKSDTSASLAITGLQVEDEADYFCHSYDGSVSGWIFGGGTKLTVLG
B5: Myo22 scFv (scFv)
scFv: EVQLLESGGGLVQPGGSLRLSCAASGFTFSSYAMSWVRQAPGKGLEWVSAISGSGGSTYYADSVKGRFTISRDNSKNTLYLQMNSLRAEDTAVYYCERMGPCTGGSCYDTLGNWGRGTLVTVSSGGGGSGGGGSGGGGSAQSVLTQPPSVSGAPGQRVTISCTGSSSNIGAGYDVHWYQQLPGAAPKLLIRGNGNRPSGVPDRFSVSKSGYSASLAITGLQPADEGVYYCQSYDSSLSGSKVFGQGTKLTVLGAAAHHHHHH
notes: tags from the vector are not described; also called scFv of Myo22
B6: Myo29 human IgG1 antibody (antibody, V domains shown)
VH: QVQLVQSGAEVKKPGASVKVSCKASGYTFTSYYMHWVRQAPGQGLEWMGIINPSGGSTSYAQKFQGRVTMTRDTSTSTVYMELSSLRSEDTAVYYCARDENWGFDPWGQGTLVTVSS
VL: SYELTQPPSVSVSPGQTATITCSGHALGDKFVSWYQQGSGQSPVLVIYDDTQRPSGIPGRFSGSNSGNTATLTISGTQAMDEADYFCQAWDSSFVFGGGTKVTVLG

How the values were obtained:
[1] = molecular target: T1, mature human GDF-8 (growth and differentiation factor-8) (human, UniProt O14793 267-375); assay: inhibition of bioGDF-8 binding to plate-coated ActRIIB-Fc, purified scFv titrated, DELFIA TRF
T1 construct: also called myostatin; mature GDF-8

[2] = molecular target: T2, Recombinant ActRIIB-Fc chimera (R&D Systems, Cat. No. 339-RB/CF) (UniProt Q13705 19-134); assay: ELISA, biotinylated ligand titrated on plate-coated ActRIIB-Fc, streptavidin-HRP
T2 construct: Bought reagent, coated on the plate; also called ActRIIB receptor; Fc part of the bought chimera not given
T2 sequence (Q13705 19-134, change not shown): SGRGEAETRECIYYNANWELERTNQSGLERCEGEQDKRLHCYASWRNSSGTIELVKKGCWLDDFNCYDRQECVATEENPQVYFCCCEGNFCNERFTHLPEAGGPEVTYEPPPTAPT

[3] = molecular target: T1, mature human GDF-8 (growth and …); assay: cell-based or functional assay
mature human BMP-11 = molecular target: B3; assay: inhibition of biotinylated BMP-11 (10 ng/ml) binding to plate-coated ActRIIB-Fc, ELISA, Myo29 preincubated with the ligand
[4] = molecular target: T1, mature human GDF-8 (growth and …); assay: inhibition of biotinylated GDF-8 (10 ng/ml) binding to plate-coated ActRIIB-Fc, ELISA, Myo29 preincubated with the ligand

Binder: B1
- IC50 [1]: 1.7 nM

Binder: B2
- IC50 [1]: 2.4 nM

Binder: B3
- EC50 [2]: 0.04 µg/mL

Binder: B4
- RGA and ActRIIB binding assays (not said which), IC50 [3]: 0.2 to 0.35 nM

Binder: B5
- IC50 [1]: 60 nM

Binder: B6
- IC50 (mature human BMP-11): 0.2 to 0.4 nM
- pGL3(CAGA)12 reporter gene assay (RGA) in A204 cells, GDF-8 at 20 ng/ml, IC50 [3]: 15 ng/ml to 30 ng/ml (2×) and 0.1 nM to 0.2 nM (2×)
- IC50 [4]: 0.2 to 0.4 nM

— patent US7261893 (Pfizer, dated 2007)
